Results as given in paper PMC3816256, “Sgol2 provides a regulatory platform that coordinates essential cell cycle processes during meiosis I in oocytes” (eLife, 2013).

Tests used:
[1] = target: the molecule itself; experiment: pull-down; purified Flag-tagged MBP-Sgol2cc (31-117) pulled down by purified His-tagged MBP-Sgol2cc (31-117) with the same substitution; western blots
[2] = target: the molecule itself; experiment: pull-down; MBP-Sgol2cc-His and MBP-Sgol2cc-Flag co-expressed in E. coli; 10 mg of extract on Talon beads 2 hr at 4°C (50 mM sodium phosphate pH 7, 250 mM NaCl, 10% glycerol, 0.02% Triton X-100), washes with 23 mM imidazole; blots with anti-Flag and anti-His; the paper calls it co-immunoprecipitation

Protein	binding result [1]	binding result [2]
MBP-Sgol2cc-Flag, wild type (mouse Sgol2 coiled coil region 31-117) (domain or fragment, UniProt Q7TSY8 31-117, looked up, In the dimerization assays the second copy (bait) carried a His tag in place of Flag (MBP-Sgol2cc-His, pET28b backbone; Flag copy in pMAL-c2x); also called MBP-mSgol2cc-Flag; MBP-Sgol2cc-His; source: also His- and Flag-tagged copies co-expressed, in extract; not shown: MBP, N-terminal, kept; Flag, C-terminal, kept) SLASKIKAKILNNSSIFKISLKHNNRALARALSKEKENSRRITTEKMQLQKEVEKLNFENTFLRLKLNTLNKKLVEIESHVSNDLLT	binds	
MBP-Sgol2cc-Flag E82A (domain or fragment, mouse, UniProt Q7TSY8 31-117, looked up, In the dimerization assay the second copy (bait) carried a His tag in place of Flag and the same substitution; not shown: MBP, N-terminal, kept; Flag, C-terminal, kept) SLASKIKAKILNNSSIFKISLKHNNRALARALSKEKENSRRITTEKMQLQKAVEKLNFENTFLRLKLNTLNKKLVEIESHVSNDLLT	binds	
MBP-Sgol2cc-Flag L51A (domain or fragment, mouse, UniProt Q7TSY8 31-117, looked up, In the dimerization assay the second copy (bait) carried a His tag in place of Flag and the same substitution; not shown: MBP, N-terminal, kept; Flag, C-terminal, kept) SLASKIKAKILNNSSIFKISAKHNNRALARALSKEKENSRRITTEKMQLQKEVEKLNFENTFLRLKLNTLNKKLVEIESHVSNDLLT	binds	
MBP-Sgol2cc-Flag R56A (domain or fragment, mouse, UniProt Q7TSY8 31-117, looked up, In the dimerization assay the second copy (bait) carried a His tag in place of Flag and the same substitution; not shown: MBP, N-terminal, kept; Flag, C-terminal, kept) SLASKIKAKILNNSSIFKISLKHNNAALARALSKEKENSRRITTEKMQLQKEVEKLNFENTFLRLKLNTLNKKLVEIESHVSNDLLT	binds	
MBP-Sgol2cc-Flag N54A (domain or fragment, mouse, UniProt Q7TSY8 31-117, looked up, In the dimerization assay the second copy (bait) carried a His tag in place of Flag and the same substitution; not shown: MBP, N-terminal, kept; Flag, C-terminal, kept) SLASKIKAKILNNSSIFKISLKHANRALARALSKEKENSRRITTEKMQLQKEVEKLNFENTFLRLKLNTLNKKLVEIESHVSNDLLT	binds	
MBP-Sgol2cc-Flag L51A/N54A/R56A (3A) (domain or fragment, mouse, UniProt Q7TSY8 31-117, looked up, In the dimerization assays the second copy (bait) carried a His tag in place of Flag and the same substitutions; also called 3A triple mutation; 3A mutant; source: also His- and Flag-tagged copies co-expressed, in extract; not shown: MBP, N-terminal, kept; Flag, C-terminal, kept) SLASKIKAKILNNSSIFKISAKHANAALARALSKEKENSRRITTEKMQLQKEVEKLNFENTFLRLKLNTLNKKLVEIESHVSNDLLT		binds
MBP-Sgol2cc-Flag N55I (domain or fragment, mouse, UniProt Q7TSY8 31-117, looked up, In the dimerization assay the second copy (bait) carried a His tag in place of Flag and the same substitution; not shown: MBP, N-terminal, kept; Flag, C-terminal, kept) SLASKIKAKILNNSSIFKISLKHNIRALARALSKEKENSRRITTEKMQLQKEVEKLNFENTFLRLKLNTLNKKLVEIESHVSNDLLT	binds	
MBP-Sgol2cc-Flag E82K (domain or fragment, mouse, UniProt Q7TSY8 31-117, looked up, In the dimerization assay the second copy (bait) carried a His tag in place of Flag and the same substitution; not shown: MBP, N-terminal, kept; Flag, C-terminal, kept) SLASKIKAKILNNSSIFKISLKHNNRALARALSKEKENSRRITTEKMQLQKKVEKLNFENTFLRLKLNTLNKKLVEIESHVSNDLLT	binds	
